Measurements: the supplement of paper PMC7125110
± gives the standard error. Variants at the floor of the assay were thinned out.

B1: glmS ribozyme (parent)
chain: AUAAAAGCGCCAGAACUACAGAAAUGUAGUUGACGAGGAGGAGGUUUAUCGAAUUUUCGGCGGAUGCCUCCAAA

Legend:
Conditions in all cases: with glucosamine-6-phosphate
glucosamine-6-phosphate [1] = variants of: B1; assay: self-cleavage kobs at 40 uM GlcN6P; higher = faster cleavage; RNA array
Outline: (§1)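 Tiles bearing barcoded ribozyme variants, transcribed in situ by E. coli RNA polymerase on sequenced MiSeq chips, were imaged over ~14 h at 37 °C using a hybridised Cy3 probe. Glucosamine-6-phosphate was supplied at 40 μM to 10 mM in HEPES/KCl/Mg(OAc)2 buffer. kobs came from one- or two-exponential decay fits to normalised per-tile medians, and weighted Michaelis–Menten fits then provided kcat and KM.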

glucosamine-6-phosphate [2] = variants of: B1; assay: self-cleavage kobs at 640 uM GlcN6P; higher = faster cleavage; RNA array
Outline: as §1

glucosamine-6-phosphate [3] = variants of: B1; assay: self-cleavage kobs at 10000 uM GlcN6P; higher = faster cleavage; RNA array
Outline: as §1

glucosamine-6-phosphate [4] = variants of: B1; assay: self-cleavage kobs at 160 uM GlcN6P; higher = faster cleavage; RNA array
Outline: as §1

glucosamine-6-phosphate [5] = variants of: B1; assay: self-cleavage kobs at 2500 uM GlcN6P; higher = faster cleavage; RNA array
Outline: as §1

Variant	self-cleavage kobs at 40 uM GlcN6P (glucosamine-6-phosphate [1]) [s⁻¹]	self-cleavage kobs at 640 uM GlcN6P (glucosamine-6-phosphate [2]) [s⁻¹]	self-cleavage kobs at 10000 uM GlcN6P (glucosamine-6-phosphate [3]) [s⁻¹]	self-cleavage kobs at 160 uM GlcN6P (glucosamine-6-phosphate [4]) [s⁻¹]	self-cleavage kobs at 2500 uM GlcN6P (glucosamine-6-phosphate [5]) [s⁻¹]
A12G C16A A36G U69C	< 1e-05	–	–	–	–
G41A G63A	< 1e-05	< 1e-05	< 1e-05	–	–
A33C C71U	< 1e-05	–	4.08e-05 ± 1e-05	< 1e-05	–
G32U G41C	< 1e-05	–	–	< 1e-05	–
C11U U45G U55A C67G C68A	6.74e-05 ± 3.3e-05	–	5.91e-05 ± 1.9e-05	–	–
C10A G51C	< 1e-05	< 1e-05	< 1e-05	–	–
G51A U65G	< 1e-05	–	< 1e-05	< 1e-05	–
U30C A36C U69G	0.000181 ± 7.1e-05	0.000264 ± 0.00013	–	–	–
U47C A53U U56A G59C	< 1e-05	< 1e-05	< 1e-05	–	< 1e-05
A6G A14U U31C C50G	4.57e-05 ± 2.1e-05	–	0.000265 ± 9.7e-05	–	–
A6G G29C U45G C70G	< 1e-05	–	–	–	–
G9U G60U C71G	< 1e-05	–	–	–	–
C10G A14C C70U	< 1e-05	–	–	–	–
A36G U57A	< 1e-05	< 1e-05	< 1e-05	< 1e-05	< 1e-05
U45G C61G	< 1e-05	< 1e-05	< 1e-05	< 1e-05	< 1e-05
A6G G60A U65G	< 1e-05	–	< 1e-05	–	–
A42G U56G	0.000474 ± 5.8e-05	0.00411 ± 0.00062	0.0334 ± 0.0059	0.00171 ± 0.00035	0.0067 ± 0.0013
A15U A33G G38C G40C C68U	< 1e-05	–	< 1e-05	–	–
A48U C50U C58A	< 1e-05	< 1e-05	–	< 1e-05	–
U31C A48U C50A A53C U65G G66A	< 1e-05	–	< 1e-05	–	< 1e-05
C8U C58U C67U U69C	0.00084 ± 0.00041	–	0.000669 ± 0.00018	–	–
C34A A64C	< 1e-05	< 1e-05	< 1e-05	–	< 1e-05
G32C U45G U65A	< 1e-05	< 1e-05	< 1e-05	–	–
G32C A39G G43A	< 1e-05	–	–	–	–
U55A C67G	0.000126 ± 3.4e-05	0.000179 ± 2.8e-05	0.00061 ± 0.00014	0.000104 ± 2.1e-05	0.00013 ± 2e-05

Variant	self-cleavage kobs at 40 uM GlcN6P (glucosamine-6-phosphate [1]) [s⁻¹]	self-cleavage kobs at 640 uM GlcN6P (glucosamine-6-phosphate [2]) [s⁻¹]	self-cleavage kobs at 10000 uM GlcN6P (glucosamine-6-phosphate [3]) [s⁻¹]	self-cleavage kobs at 160 uM GlcN6P (glucosamine-6-phosphate [4]) [s⁻¹]	self-cleavage kobs at 2500 uM GlcN6P (glucosamine-6-phosphate [5]) [s⁻¹]
A6G U57C C70A C71U	< 1e-05	–	–	< 1e-05	–
G43A G51U G63C A64G	< 1e-05	< 1e-05	–	–	< 1e-05
A39U U55G	0.000507 ± 7.9e-05	0.00371 ± 0.00061	0.0282 ± 0.0058	0.00122 ± 0.0003	0.00715 ± 0.0012
A42U A52C	< 1e-05	< 1e-05	–	< 1e-05	< 1e-05
C34A C70U	< 1e-05	–	–	< 1e-05	–
A12U G62U C70U	< 1e-05	–	< 1e-05	–	–
A14G C34U C68G	0.000349 ± 0.00016	–	5.07e-05 ± 2e-05	–	–
U47C A53G	0.000125 ± 2.2e-05	0.00114 ± 0.00018	0.00419 ± 0.00092	0.000176 ± 5.7e-05	0.00477 ± 0.0011
U30C U57C	< 1e-05	< 1e-05	–	–	–
G9U G29A U30A C67U	< 1e-05	–	–	–	–
G32C G37C C58U	< 1e-05	–	–	–	–
C34A G37C A48C	< 1e-05	–	< 1e-05	–	–
G51U G63C	< 1e-05	< 1e-05	< 1e-05	–	< 1e-05
G38C U55G	< 1e-05	< 1e-05	< 1e-05	< 1e-05	< 1e-05
C8U G9C G35U C61G	< 1e-05	–	–	–	–
G29C C50G C61A U65C	7.48e-05 ± 2.1e-05	–	–	–	–
G7A G60A	< 1e-05	< 1e-05	< 1e-05	< 1e-05	–
C34A G38U U69A	< 1e-05	–	–	–	–
C10U U57A	< 1e-05	–	< 1e-05	–	–
G32U C61G	< 1e-05	< 1e-05	–	–	–
A15C G44U C61G C67G	< 1e-05	< 1e-05	< 1e-05	–	< 1e-05
U30A A52C	< 1e-05	< 1e-05	< 1e-05	< 1e-05	< 1e-05
G7C C16A	< 1e-05	< 1e-05	< 1e-05	< 1e-05	< 1e-05
G9A U47C G51U G63A	< 1e-05	–	< 1e-05	–	< 1e-05
U45C C50U	< 1e-05	< 1e-05	–	< 1e-05	–

Variant	self-cleavage kobs at 40 uM GlcN6P (glucosamine-6-phosphate [1]) [s⁻¹]	self-cleavage kobs at 640 uM GlcN6P (glucosamine-6-phosphate [2]) [s⁻¹]	self-cleavage kobs at 10000 uM GlcN6P (glucosamine-6-phosphate [3]) [s⁻¹]	self-cleavage kobs at 160 uM GlcN6P (glucosamine-6-phosphate [4]) [s⁻¹]	self-cleavage kobs at 2500 uM GlcN6P (glucosamine-6-phosphate [5]) [s⁻¹]
G29U A42G G43A	< 1e-05	–	–	–	–
G35C U69A C70G	< 1e-05	–	–	–	–
C10A A64U	< 1e-05	< 1e-05	< 1e-05	–	< 1e-05
G37C G44U U46G C71G	< 1e-05	–	–	–	–
C11G U45A	< 1e-05	–	–	–	–
A48G G59U	< 1e-05	–	–	–	–
A12C A14G A53U C67G	9.17e-05 ± 2.3e-05	–	0.00219 ± 0.00062	–	–
A12U U49A	< 1e-05	–	–	< 1e-05	–
U30G C70U	0.000299 ± 3.2e-05	0.00108 ± 0.00014	0.00516 ± 0.00081	0.000471 ± 8.6e-05	0.00367 ± 0.00096
C10G A12U U30G	< 1e-05	–	–	–	–
C10U U57G	< 1e-05	–	–	–	–
G41A C58G	< 1e-05	< 1e-05	< 1e-05	< 1e-05	< 1e-05
G7A A14C G32U G40A	< 1e-05	–	–	–	< 1e-05
C34U U57C	< 1e-05	< 1e-05	< 1e-05	< 1e-05	< 1e-05
G29A G38U A39G C58A G66A	< 1e-05	–	–	–	–
C16A G37U G43U U57C	< 1e-05	< 1e-05	< 1e-05	–	–
C16U U30A G37A G40U U65A	< 1e-05	–	< 1e-05	–	–
G37A C61U	< 1e-05	< 1e-05	–	–	< 1e-05
G9U G32U G41U A53C	< 1e-05	–	< 1e-05	–	–
G7C C10A G29U A64C	< 1e-05	–	< 1e-05	–	< 1e-05
G41U C50A U57A	< 1e-05	–	< 1e-05	–	–
A6C C61U	< 1e-05	–	< 1e-05	< 1e-05	–
A6C G7U	< 1e-05	< 1e-05	< 1e-05	< 1e-05	< 1e-05
U55A U56C	0.00013 ± 2.5e-05	0.000919 ± 0.00017	0.00781 ± 0.0012	0.000191 ± 3e-05	0.00258 ± 0.00063
U30C U49A G60C	< 1e-05	< 1e-05	–	–	–

Variant	self-cleavage kobs at 40 uM GlcN6P (glucosamine-6-phosphate [1]) [s⁻¹]	self-cleavage kobs at 640 uM GlcN6P (glucosamine-6-phosphate [2]) [s⁻¹]	self-cleavage kobs at 10000 uM GlcN6P (glucosamine-6-phosphate [3]) [s⁻¹]	self-cleavage kobs at 160 uM GlcN6P (glucosamine-6-phosphate [4]) [s⁻¹]	self-cleavage kobs at 2500 uM GlcN6P (glucosamine-6-phosphate [5]) [s⁻¹]
A15C G66A	8.43e-05 ± 1.9e-05	0.000599 ± 0.00014	0.00503 ± 0.0012	0.000372 ± 0.00011	0.00264 ± 0.00049
A53G G60U	< 1e-05	< 1e-05	–	< 1e-05	–
C8G U46A C70G	< 1e-05	–	–	–	–
G40C C67A C71A	3.18e-05 ± 1.4e-05	–	0.000726 ± 0.00011	–	–
G35C A42G U49A G66C	< 1e-05	–	< 1e-05	–	< 1e-05
C10U C11A A39C A42U U47C G66C	< 1e-05	–	–	–	–
C11U U46A	< 1e-05	–	9.01e-05 ± 1.7e-05	< 1e-05	4.03e-05 ± 1.7e-05
C11G C34A	< 1e-05	–	< 1e-05	< 1e-05	< 1e-05
C58A A64U	< 1e-05	–	< 1e-05	–	< 1e-05
A15C A39G	0.000398 ± 9.2e-05	0.00224 ± 0.00049	0.013 ± 0.0025	–	0.00476 ± 0.0014
U30A U49A G62U	< 1e-05	–	–	–	–
U46G G51C C67G	< 1e-05	–	–	–	–
U55A G60C	< 1e-05	< 1e-05	–	–	–
A42G C71A	0.000338 ± 7.5e-05	0.00207 ± 0.00033	0.0105 ± 0.003	0.000606 ± 0.00021	0.00316 ± 0.0013
G29C G60U C61A	< 1e-05	< 1e-05	–	–	–
G29C C34A	< 1e-05	< 1e-05	< 1e-05	< 1e-05	< 1e-05
G35C U56C	< 1e-05	< 1e-05	< 1e-05	< 1e-05	< 1e-05
A36U C58G C70A	8.19e-05 ± 2.5e-05	–	5.18e-05 ± 1.5e-05	0.000111 ± 3.1e-05	4.59e-05 ± 2.3e-05
G29U U54G C58U U69G	6.42e-05 ± 2.3e-05	–	–	–	–
A42U G51A	< 1e-05	< 1e-05	–	–	–
A36C G59U C68G	< 1e-05	–	–	–	–
C19A G43U	< 1e-05	< 1e-05	–	–	–
